Measurements taken from paper PMC8699718, “A structurally conserved site in AUP1 binds the E2 enzyme UBE2G2 and is essential for ER-associated degradation” (PLoS Biology, 2021).
Positions count from the first letter of the chain named. Names may count otherwise. Ends that are not written are not given here.

T1: purified UBE2G2 (UniProt P60604 1-165, ^15N-labeled for NMR)
T1 construct: UBE2G2, purified recombinant protein used for ITC, FP, MST and NMR; also called apo-UBE2G2; ^15N-labeled UBE2G2
T1 sequence (looked up): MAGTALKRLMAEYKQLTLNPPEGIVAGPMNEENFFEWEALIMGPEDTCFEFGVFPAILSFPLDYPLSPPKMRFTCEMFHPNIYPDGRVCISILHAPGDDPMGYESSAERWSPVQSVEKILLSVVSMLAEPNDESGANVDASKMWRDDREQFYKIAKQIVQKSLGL

T2: UBE2G2 (Homo sapiens, UniProt P60604)
T2 construct: made in house
T2 sequence (P60604 1-165): T1 sequence (looked up)

T3: purified UBE2G2 (UniProt P60604 1-165, ^15N-labeled for NMR)
T3 chain: T1 sequence (looked up)

B1: G2BR^gp78 peptide (aa 574 to 600, with an added N-terminal Trp) (peptide)
peptide: WSADERQRMLVQRKDELLQQARKRFLNK
notes: N-terminal Trp residue added for peptide quantification; Natural stretch with one extra N-terminal Trp added for quantification; also called gp78 G2BR; source: synthetic peptide (GenScript)
B2: AUP1-FLAG: full-length epitope-tagged AUP1 (protein, UniProt Q9Y679 1-410, looked up)
chain: MELPSGPGPERLFDSHRLPGDCFLLLVLLLYAPVGFCLLVLRLFLGIHVFLVSCALPDSVLRRFVVRTMCAVLGLVARQEDSGLRDHSVRVLISNHVTPFDHNIVNLLTTCSTPLLNSPPSFVCWSRGFMEMNGRGELVESLKRFCASTRLPPTPLLLFPEEEATNGREGLLRFSSWPFSIQDVVQPLTLQVQRPLVSVTVSDASWVSELLWSLFVPFTVYQVRWLRPVHRQLGEANEEFALRVQQLVAKELGQTGTRLTPADKAEHMKRQRHPRLRPQSAQSSFPPSPGPSPDVQLATLAQRVKEVLPHVPLGVIQRDLAKTGCVDLTITNLLEGAVAFMPEDITKGTQSLPTASASKFPSSGPVTPQPTALTFAKSSWARQESLQERKQALYEYARRRFTERRAQEAD
modifications: full-length FLAG tag
B3: 2A: AUP1 point mutant R382A/Q383A (GST-AUP1 aa 292 to 410) (protein, UniProt Q9Y679 1-410, looked up, variant R382A Q383A)
Lipid droplet-regulating VLDL …: B2 chain with R382A, Q383A
modifications: GST fusion aa 292-410
B4: 5E: AUP1 point mutant; GST-AUP1 aa 292 to 410 in vitro, full-length AUP1-FLAG in cells (protein, UniProt Q9Y679 1-410, looked up, variant R382E Q383E K390E R398E R400E)
Lipid droplet-regulating VLDL …: B2 chain with R382E, Q383E, K390E, R398E, R400E
modifications: GST or FLAG tag
notes: AUP1 point mutant; GST-AUP1 aa 292 to 410 in vitro, full-length AUP1-FLAG in cells
B5: 2E: AUP1 point mutant; GST-AUP1 aa 292 to 410 in vitro, full-length AUP1-FLAG in cells (protein, UniProt Q9Y679 1-410, looked up, variant R382E Q383E)
Lipid droplet-regulating VLDL …: B2 chain with R382E, Q383E
modifications: GST or FLAG tag
notes: as for B4
B6: FITC-labeled G2BR^gp78 peptide (peptide)
chain: WSADERQRMLVQRKDELLQQARKRFLNK
modifications: also: FITC label, position not given here
B7: A397D: AUP1 point mutant; GST-AUP1 aa 292 to 410 in vitro, full-length AUP1-FLAG in cells (protein)
chain: SPDVQLATLAQRVKEVLPHVPLGVIQRDLAKTGCVDLTITNLLEGAVAFMPEDITKGTQSLPTASASKFPSSGPVTPQPTALTFAKSSWARQESLQERKQALYEYDRRRFTERRAQEAD
modifications: left off: GST, end not stated, kept
notes: as for B4
B8: Y394D: AUP1 point mutant (GST-AUP1 aa 292 to 410) (protein)
chain: B7 chain with Y103D, D106A
modifications: left off: GST, end not stated, kept
B9: L386D/Y394D: AUP1 point mutant; GST-AUP1 aa 292 to 410 in vitro, full-length AUP1-FLAG in cells (protein)
chain: B7 chain with L95D, Y103D, D106A
modifications: left off: GST, end not stated, kept
notes: as for B4
B10: FITC-labeled G2BR^AUP1 peptide (peptide)
chain: SSWARQESLQERKQALYEYARRRFTER
modifications: also: FITC label, position not given here

Key:
[1] = target: T1, purified UBE2G2; test: ITC; 30 μM G2BR peptide injected into 3 μM UBE2G2 in the cell, PBS pH 7.4, 25°C, one set of sites model; conditions: both partners purified
[2] = tested on: NHK (Null Hong Kong variant of alpha1-antitrypsin); test: CHX chase: NHK degradation in HT1080 AUP1 KO cells; type: cell-based, human; conditions: for restoration of NHK degradation: full-length or deleted AUP1-FLAG re-expressed in HT1080 AUP1 KO cells, CHX 50 μg/mL
Protocol: Fig 1 The G2BR of AUP1 is required for ERAD of NHK. (A) HT1080 or cells in which HRD1 was knocked out by CRISPR/Cas-9 (HRD1 KO) were transfected with plasmid encoding carboxyl-terminally HA-tagged NHK. Cells were treated with CHX for the indicated times to inhibit protein synthesis and NHK-HA degradation monitored by western blot. GFP and HSP60 serve as transfection efficiency and gel loading controls, respectively. (B) HT1080 or cells in which either AUP1 or gp78 was knocked out (AUP1 KO or gp78 KO) were transfected with NHK-HA and their degradation assessed. (C) AUP1 KO cells were transfected with NHK-HA and empty vector or plasmid encoding carboxyl-terminally FLAG-tagged AUP1 and NHK degradation assessed. (D) Indicated cells were transfected with plasmid encoding carboxyl-terminally MYC-tagged INSIG-1 and assessed for INSIG-1 degradation. (E) Schematic representation of AUP1 in the ER membrane and deletion mutants used in subsequent experiments. Amino acid residues are numbered spanning each domain. (F) AUP1 KO cells were transfected with NHK-HA and plasmids encoding the indicated FLAG-tagged AUP1 WT or deletion mutants and assessed for NHK degradation. (G) HEK293 (Parental) or HEK293 AUP1 KO cells were assessed for degradation of NHK-HA. (H) HEK293 AUP1 KO cells were assessed for NHK-HA degradation as in (F). Markers represent apparent molecular weight in kDa. The data underlying this figure can be found in S1 Data. aa, amino acid; AUP1, ancient ubiquitous protein 1; CHX, cycloheximide; ER, endoplasmic reticulum; ERAD, endoplasmic reticulum–associated degradation; G2BR, UBE2G2 Binding Region; KO, knockout; NHK, Null Hong Kong; WT, wild type.
(§1) Fig 6 Disruption of UBE2G2:G2BR^AUP1 interaction abrogates AUP1 function in cells. (A) GST or indicated GST-AUP1 fusions (aa 292 to 410, expression shown in Coomassie-stained gel) were immobilized on glutathione beads and binding to ^35S-UBE2G2 was assessed as in Fig 3A. Mutations include 2A (R382A/Q383A), 2E (R382E/Q383E), and 5E (R382E/Q383E/K390E/R398E/R400E). (B) AUP1 KO cells were transfected with NHK-HA and forms of full-length AUP1-FLAG with the indicated point mutations from (A) and NHK degradation assessed by CHX chase. (C) Binding assay performed as in (A) with AUP1 mutants predicted to disrupt hydrophobic interactions with UBE2G2. (D) Cellular assay performed as in (B) with AUP1-FLAG mutants that disrupt interactions with UBE2G2 in vitro in (C). The data underlying this figure can be found in S1 Data. aa, amino acid; AUP1, ancient ubiquitous protein 1; CHX, cycloheximide; G2BR, UBE2G2 Binding Region; KO, knockout; WT, wild type.
Fig 8 Recruitment of UBE2G2 to the ER membrane and activation by G2BR^AUP1 is required for ERAD. (A) HT1080 or AUP1 KO cells were transfected with NHK-HA and either empty vector or MYC-UBE2G2 and NHK turnover assessed by CHX chase. (B) AUP1 KO cells were transfected with NHK-HA and GFP fusions of either a scrambled G2BR sequence (SCR) or G2BR^AUP1 and NHK turnover and levels of endogenous UBE2G2 assessed. Luciferase and β-actin served as transfection efficiency and gel loading controls, respectively. (C) AUP1 KO cells were transfected with NHK-HA, MYC-UBE2G2, and either GFP-SCR or GFP-G2BR^AUP1 and NHK turnover assessed. (D) Membrane fractionation was performed on HT1080 or AUP1 KO cells transfected with either empty vector or AUP1-FLAG and localization of UBE2G2 assessed by western blotting. Localization of β-actin (cytosol) and Calnexin (ER membrane) were used as controls for cytosolic (C) and membrane (M) fractions, respectively. (E) Membrane fractionation of AUP1 KO cells transfected with either MYC-UBE2G2 or TM-UBE2G2. (F) HT1080 cells were transfected with TM-UBE2G2 and its localization assessed by confocal microscopy. Images shown are from an optical section after deconvolution. HA-tagged UBE2J2, an ER-localized E2, serves as an ER marker. […]

[3] = target: T2, UBE2G2; test: GST pulldown of in vitro translated 35S-UBE2G2; type: binding; conditions: GST-AUP1 aa 292 to 410 on glutathione beads, ~3 pmol GST fusion, ~0.2 pmol E2, overnight 4°C, pH 7.4
Protocol: Fig 3 The AUP1–UBE2G2 interaction is required for ERAD. (A) Equimolar amounts of GST-AUP1 (aa 292 to 410) or GST were immobilized on glutathione beads and binding to the indicated in vitro translated ^35S-labeled E2s was assessed. Left panel is 5% of input used for binding. E2s are referred to by their unique alpha-numeric designation (e.g., UBE2G1 and UBE2J1). (B) HT1080 or UBE2G2 KO cells were transfected with INSIG-1-MYC and degradation assessed by CHX chase. […] (D) Cells were transfected with NHK-MYC and HA-ubiquitin and ubiquitination of NHK assessed following proteasome inhibition and IP (right panel). Left panel is 10% of total cell lysate used for IP, indicating no discernable change in total ubiquitination. (E) Levels of endogenous HRD1 were monitored by CHX chase in the indicated cell types. (F) Ubiquitination of endogenous HRD1 was assessed following IP with HRD1 antiserum. Arrow in upper panel indicates migration of unmodified HRD1. Control immunoprecipitates using rabbit serum are shown for comparison. The data underlying this figure can be found in S1 Data. aa, amino acid; AUP1, ancient ubiquitous protein 1; CHX, cycloheximide; ERAD, endoplasmic reticulum–associated degradation; IP, immunoprecipitation; KO, knockout; WT, wild type.
as §1
In vitro translated ^35S methionine-labeled E2s were generated using the E. coli T7-S30 Extract System (Promega) and excess ^35S methionine was removed by desalting twice with Zeba Spin Desalting Columns (Thermo Scientific). GST fusion proteins were quantified by Coomassie blue staining. Moreover, 0.1 μg of GST fusion protein (approximately 3 pmol) was prebound to GS 4B (GE Healthcare) and then incubated with approximately 10^5 cpm of ^35S methionine-labeled E2 (approximately 0.2 pmol) in 200 μl Binding Buffer (25 mM Tris-HCl, pH 7.4, 50 mM NaCl, 5 mM DTT, 0.5% IGEPAL CA-630) overnight at 4°C. Beads were extensively washed in Binding Buffer, resolved on Bis/Tris polyacrylamide gels under reducing conditions, dried and visualized on a Typhoon FLA 7000 (GE Healthcare). Binding was quantified using ImageQuant Software.

[4] = target: T3, purified UBE2G2; test: MST
[5] = target: T3, purified UBE2G2; test: FP

Row | Molecule | restoration of NHK degradation [2] | binding to UBE2G2 [3] | other results
1 | B1 |  |  | Kd [1]: 2.7 nM
2 | B2 | restored NHK degradation |  | 
3 | B3 |  | unable to disrupt UBE2G2 binding | 
4 | B4 | failed to restore NHK degradation | loss of detectable UBE2G2 binding | 
5 | B5 | restored degradation of NHK in the AUP1 KO cells, to a degree comparable to WT AUP1 | failed to disrupt UBE2G2 binding | 
6 | B6 |  |  | Kd [4]: 10 nM; Kd [5]: 15.1 nM
7 | B7 | failed to restore NHK degradation | Binding was similarly lost | NHK degradation, doubled amount of plasmid ([2]; repeat transfection with doubled amount of mutant, reviewer response): unable to convince ourselves that there is any significant degradation
8 | B8 |  | reduced binding | 
9 | B9 | failed to restore NHK degradation | eliminated detectable binding to UBE2G2 | 
10 | B10 |  |  | Kd [4]: 4.3 nM; Kd [5]: 7.1 nM
